Laboratory results reported in patent publication US12012599B2, “Compositions and methods for modulating left-right differentiation factor (LEFTY) and bone morphogenic factor (BMP)” (CZ Biohub SF LLC, priority 2018, dated 2024).

B1: CRIPTO-1: soluble EGF-CFC Nodal co-receptor (protein, UniProt P13385 31-150, looked up)
Protein Cripto: LGHQEFARPSRGYLAFRDDSIWPQEEPAIRPRSSQRVPPMGIQHSKELNRTCCLNGGTCMLGSFCACPPSFYGRNCEHDVRKENCGSVPHDTWLPKKCSLCKCWHGQLRCFPQAFLPGCD
B2: NODAL: TGF-β family ligand that induces phosphorylation of SMAD2/3 (protein, UniProt Q96S42 238-347, looked up)
Nodal homolog: HHLPDRSQLCRKVKFQVDFNLIGWGSWIIYPKQYNAYRCEGECPNPVGEEFHPTNHAYIQSLLKRYQPHRVPSTCCAPVKTKPLSMLYVDNGRVLLDHHKDMIVEECGCL

System: mammary epithelial cells
Test: 3D organotypic mammary organoid formation
Type: cell-based, mouse
Conditions: for organoid formation (frequency, number of colonies): Wnt-dependent organoid culture
Protocol: FIGS. 8A-8D. Autocrine and paracrine effects of NODAL and LEFTY1 in mammary epithelial cell populations. […] The sorted cells were grown in the 3D organotypic assays to test their organoid formation potential in the presence of NODAL. […] Each dot represents an organoid (n=3). […] Data are represented as median±S.D. Statistical analysis, One-way ANOVA with Dunnet's adjustment, **p<0.01.
FIGS. 9A-9F. Opposing effects of LEFTY1 and BMP7 in mammary organoid formation. […] Data are represented as median±S.D. Statistical analysis, one-way ANOVA with Dunnet's adjustment, *p<0.05; **p<0.01; ***p<0.001.
Since LEFTY1 and BMP7 were able to affect the branching of mammary glands, we hypothesized that the LEFTY1/BMP7 signaling axis may affect the proliferation of mammary epithelial cells. We exposed freshly dissociated mammary epithelial cells to NODAL, LEFTY1, BMP7 and CRIPTO-1 in a modified Wnt-dependent in vitro organoid culture system that was optimized for progenitor cell propagation (Zeng & Nusse, Cell Stem Cell 6, 568-577 (2010) and Jamieson et al., Development 144, 1065-1071 (2017)). In Xenopus, Wnt signaling controls the expression of Nodal and Cripto-1 during gastrulation. Consistent with the evolutionary conservation of the interaction between the Nodal and Wnt pathways (Branford et al., Curr Biol 12, 2136-2141 (2002)), NODAL had no effect on organoid formation in our Wnt-driven culture system (FIG. 8A).
In organoid cultures, the basal cells give rise to mixed phenotype colonies of luminal and basal cells. To prevent the formation of LEFTY1-expressing cells during organoid formation, genetic knockdown of LEFTY1 was done. To knock-down mouse LEFTY1, pSICO-R lentiviral vector was used (Ventura, PNAS, 2004). Different shRNAs were designed and cloned into pSICO-R. The target sequences of the shRNAs cloned were GGACAAGGCTGATGTGGAA (SEQ ID NO: 14) and GCAGGTTCCTGGTGTCAGA (SEQ ID NO: 15). The efficiency of knock-down was tested by transfecting HEK293T cells with pSICO-R-shLEFTY1 constructs with pEGFP-C3-LEFTY1 at 1:4 and 1:20 ratio. Decrease on GFP signal was used to calculate the percentage of inhibition of the shLEFTY sequences. […] (p<0.001 and p<0.01, respectively) (FIGS. 8C-8D and FIGS. 9E-9F).

Molecule | organoid formation (frequency, number of colonies) | effect on LEFTY1's increase of organoid formation (in combination with LEFTY1)
B1 | did not have a significant effect | enhanced
B2 | no effect | 
